Laboratory results taken from patent US20250218531A1 (ABSCI, published 2025).

B1: Trastuzumab HCDR3 variant ARGYYHYYHYQY (Fab, V domains shown)
VH: EVQLVESGGGLVQPGGSLRLSCAASGFNIKDTYIHWVRQAPGKGLEWVARIYPTNGYTRYADSVKGRFTISADTSKNTAYLQMNSLRAEDTAVYYCARGYYHYYHYQYWGQGTLVTVSS
VL: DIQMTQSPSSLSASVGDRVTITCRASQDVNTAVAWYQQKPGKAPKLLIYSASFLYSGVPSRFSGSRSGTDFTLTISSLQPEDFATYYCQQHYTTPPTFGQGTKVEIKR
B2: Trastuzumab HCDR3 variant ARYLSYSFAWDY (Fab, V domains shown)
VH: EVQLVESGGGLVQPGGSLRLSCAASGFNIKDTYIHWVRQAPGKGLEWVARIYPTNGYTRYADSVKGRFTISADTSKNTAYLQMNSLRAEDTAVYYCARYLSYSFAWDYWGQGTLVTVSS
VL: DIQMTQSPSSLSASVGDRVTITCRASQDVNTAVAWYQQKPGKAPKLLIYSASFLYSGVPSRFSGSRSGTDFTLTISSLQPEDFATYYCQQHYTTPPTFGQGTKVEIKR
B3: Trastuzumab HCDR3 variant ARWSWPGYEFEF (Fab, V domains shown)
VH: EVQLVESGGGLVQPGGSLRLSCAASGFNIKDTYIHWVRQAPGKGLEWVARIYPTNGYTRYADSVKGRFTISADTSKNTAYLQMNSLRAEDTAVYYCARWSWPGYEFEFWGQGTLVTVSS
VL: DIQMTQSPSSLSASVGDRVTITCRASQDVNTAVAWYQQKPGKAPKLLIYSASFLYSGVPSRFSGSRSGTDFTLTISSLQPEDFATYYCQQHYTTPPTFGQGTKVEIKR
B4: Trastuzumab HCDR3 variant ARWLYYGYYFDY (Fab, V domains shown)
VH: EVQLVESGGGLVQPGGSLRLSCAASGFNIKDTYIHWVRQAPGKGLEWVARIYPTNGYTRYADSVKGRFTISADTSKNTAYLQMNSLRAEDTAVYYCARWLYYGYYFDYWGQGTLVTVSS
VL: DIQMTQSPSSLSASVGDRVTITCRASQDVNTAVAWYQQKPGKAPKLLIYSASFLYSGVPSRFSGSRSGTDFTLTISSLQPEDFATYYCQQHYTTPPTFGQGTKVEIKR
B5: Trastuzumab HCDR3 variant ARYHFSGYFMDA (Fab, V domains shown)
VH: EVQLVESGGGLVQPGGSLRLSCAASGFNIKDTYIHWVRQAPGKGLEWVARIYPTNGYTRYADSVKGRFTISADTSKNTAYLQMNSLRAEDTAVYYCARYHFSGYFMDAWGQGTLVTVSS
VL: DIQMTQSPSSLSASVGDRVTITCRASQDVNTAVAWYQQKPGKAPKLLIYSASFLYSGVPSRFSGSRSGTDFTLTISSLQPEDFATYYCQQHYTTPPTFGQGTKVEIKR
B6: Trastuzumab HCDR3 variant ARYHNTGYFWGA (Fab, V domains shown)
VH: EVQLVESGGGLVQPGGSLRLSCAASGFNIKDTYIHWVRQAPGKGLEWVARIYPTNGYTRYADSVKGRFTISADTSKNTAYLQMNSLRAEDTAVYYCARYHNTGYFWGAWGQGTLVTVSS
VL: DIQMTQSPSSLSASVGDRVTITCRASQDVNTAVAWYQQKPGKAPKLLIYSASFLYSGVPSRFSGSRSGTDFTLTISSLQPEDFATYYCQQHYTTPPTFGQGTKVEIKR
B7: Trastuzumab HCDR3 variant ARYFGGSYAYGR (Fab, V domains shown)
VH: EVQLVESGGGLVQPGGSLRLSCAASGFNIKDTYIHWVRQAPGKGLEWVARIYPTNGYTRYADSVKGRFTISADTSKNTAYLQMNSLRAEDTAVYYCARYFGGSYAYGRWGQGTLVTVSS
VL: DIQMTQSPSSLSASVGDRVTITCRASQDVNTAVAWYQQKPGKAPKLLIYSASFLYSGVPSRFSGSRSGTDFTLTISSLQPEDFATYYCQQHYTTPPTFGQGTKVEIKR
B8: Trastuzumab HCDR3 variant ARSGEGYYAFDY (Fab, V domains shown)
VH: EVQLVESGGGLVQPGGSLRLSCAASGFNIKDTYIHWVRQAPGKGLEWVARIYPTNGYTRYADSVKGRFTISADTSKNTAYLQMNSLRAEDTAVYYCARSGEGYYAFDYWGQGTLVTVSS
VL: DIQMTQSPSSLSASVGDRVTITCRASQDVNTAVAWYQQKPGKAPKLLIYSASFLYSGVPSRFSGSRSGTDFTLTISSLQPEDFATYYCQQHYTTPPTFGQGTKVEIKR
B9: Trastuzumab HCDR3 variant ARSEWFWGSFAY (Fab, V domains shown)
VH: EVQLVESGGGLVQPGGSLRLSCAASGFNIKDTYIHWVRQAPGKGLEWVARIYPTNGYTRYADSVKGRFTISADTSKNTAYLQMNSLRAEDTAVYYCARSEWFWGSFAYWGQGTLVTVSS
VL: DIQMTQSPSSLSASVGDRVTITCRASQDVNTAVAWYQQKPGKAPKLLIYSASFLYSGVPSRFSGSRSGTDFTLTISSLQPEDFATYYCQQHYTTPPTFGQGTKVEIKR
B10: Trastuzumab HCDR3 variant ARYLSYSYAWDY (Fab, V domains shown)
VH: EVQLVESGGGLVQPGGSLRLSCAASGFNIKDTYIHWVRQAPGKGLEWVARIYPTNGYTRYADSVKGRFTISADTSKNTAYLQMNSLRAEDTAVYYCARYLSYSYAWDYWGQGTLVTVSS
VL: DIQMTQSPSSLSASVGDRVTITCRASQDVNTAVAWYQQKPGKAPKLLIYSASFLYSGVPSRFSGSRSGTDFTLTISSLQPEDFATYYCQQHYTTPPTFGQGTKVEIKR
B11: Trastuzumab HCDR3 variant ARYGSGYYGLDY (Fab, V domains shown)
VH: EVQLVESGGGLVQPGGSLRLSCAASGFNIKDTYIHWVRQAPGKGLEWVARIYPTNGYTRYADSVKGRFTISADTSKNTAYLQMNSLRAEDTAVYYCARYGSGYYGLDYWGQGTLVTVSS
VL: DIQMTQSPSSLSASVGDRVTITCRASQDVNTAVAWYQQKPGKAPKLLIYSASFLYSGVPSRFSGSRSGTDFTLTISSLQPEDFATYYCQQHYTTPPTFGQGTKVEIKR
B12: Trastuzumab HCDR3 variant ARSTDYWHASQY (Fab, V domains shown)
VH: EVQLVESGGGLVQPGGSLRLSCAASGFNIKDTYIHWVRQAPGKGLEWVARIYPTNGYTRYADSVKGRFTISADTSKNTAYLQMNSLRAEDTAVYYCARSTDYWHASQYWGQGTLVTVSS
VL: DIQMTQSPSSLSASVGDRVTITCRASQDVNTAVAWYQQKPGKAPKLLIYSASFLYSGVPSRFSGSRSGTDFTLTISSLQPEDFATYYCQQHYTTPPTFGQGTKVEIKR
B13: Trastuzumab HCDR3 variant ARYADYQFHFDN (Fab, V domains shown)
VH: EVQLVESGGGLVQPGGSLRLSCAASGFNIKDTYIHWVRQAPGKGLEWVARIYPTNGYTRYADSVKGRFTISADTSKNTAYLQMNSLRAEDTAVYYCARYADYQFHFDNWGQGTLVTVSS
VL: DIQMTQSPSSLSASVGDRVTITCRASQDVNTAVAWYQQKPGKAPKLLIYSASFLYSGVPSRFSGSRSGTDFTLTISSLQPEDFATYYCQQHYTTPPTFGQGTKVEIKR
B14: Trastuzumab HCDR3 variant ARGYYYYQWYYY (Fab, V domains shown)
VH: EVQLVESGGGLVQPGGSLRLSCAASGFNIKDTYIHWVRQAPGKGLEWVARIYPTNGYTRYADSVKGRFTISADTSKNTAYLQMNSLRAEDTAVYYCARGYYYYQWYYYWGQGTLVTVSS
VL: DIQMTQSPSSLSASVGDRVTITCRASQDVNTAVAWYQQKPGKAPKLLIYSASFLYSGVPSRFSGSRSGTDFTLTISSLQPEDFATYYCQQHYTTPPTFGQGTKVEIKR
B15: Trastuzumab HCDR3 variant ARYLSYSYAWNY (Fab, V domains shown)
VH: EVQLVESGGGLVQPGGSLRLSCAASGFNIKDTYIHWVRQAPGKGLEWVARIYPTNGYTRYADSVKGRFTISADTSKNTAYLQMNSLRAEDTAVYYCARYLSYSYAWNYWGQGTLVTVSS
VL: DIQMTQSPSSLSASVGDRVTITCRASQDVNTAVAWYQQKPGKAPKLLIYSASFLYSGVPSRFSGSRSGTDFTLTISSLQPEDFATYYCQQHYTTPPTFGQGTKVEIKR
B16: Trastuzumab HCDR3 variant ARHHYSGYFHDV (Fab, V domains shown)
VH: EVQLVESGGGLVQPGGSLRLSCAASGFNIKDTYIHWVRQAPGKGLEWVARIYPTNGYTRYADSVKGRFTISADTSKNTAYLQMNSLRAEDTAVYYCARHHYSGYFHDVWGQGTLVTVSS
VL: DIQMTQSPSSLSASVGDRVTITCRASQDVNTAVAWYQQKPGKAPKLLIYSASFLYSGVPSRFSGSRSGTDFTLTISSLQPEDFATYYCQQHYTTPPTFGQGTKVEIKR
B17: Trastuzumab HCDR3 variant ARSYYGAYYFDY (Fab, V domains shown)
VH: EVQLVESGGGLVQPGGSLRLSCAASGFNIKDTYIHWVRQAPGKGLEWVARIYPTNGYTRYADSVKGRFTISADTSKNTAYLQMNSLRAEDTAVYYCARSYYGAYYFDYWGQGTLVTVSS
VL: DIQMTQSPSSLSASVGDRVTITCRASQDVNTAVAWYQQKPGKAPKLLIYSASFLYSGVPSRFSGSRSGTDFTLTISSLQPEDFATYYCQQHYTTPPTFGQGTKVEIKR
B18: Trastuzumab HCDR3 variant ARYLSYSYAWDN (Fab, V domains shown)
VH: EVQLVESGGGLVQPGGSLRLSCAASGFNIKDTYIHWVRQAPGKGLEWVARIYPTNGYTRYADSVKGRFTISADTSKNTAYLQMNSLRAEDTAVYYCARYLSYSYAWDNWGQGTLVTVSS
VL: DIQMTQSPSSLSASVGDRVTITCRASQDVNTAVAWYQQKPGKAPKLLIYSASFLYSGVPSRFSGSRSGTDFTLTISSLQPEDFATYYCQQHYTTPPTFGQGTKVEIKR
B19: Trastuzumab HCDR3 variant ARYLEYTYAWDY (Fab, V domains shown)
VH: EVQLVESGGGLVQPGGSLRLSCAASGFNIKDTYIHWVRQAPGKGLEWVARIYPTNGYTRYADSVKGRFTISADTSKNTAYLQMNSLRAEDTAVYYCARYLEYTYAWDYWGQGTLVTVSS
VL: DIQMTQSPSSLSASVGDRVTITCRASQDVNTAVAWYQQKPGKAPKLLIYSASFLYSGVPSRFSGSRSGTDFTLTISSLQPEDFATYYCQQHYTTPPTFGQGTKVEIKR
B20: Trastuzumab HCDR3 variant ARNYVYWYGMTV (Fab, V domains shown)
VH: EVQLVESGGGLVQPGGSLRLSCAASGFNIKDTYIHWVRQAPGKGLEWVARIYPTNGYTRYADSVKGRFTISADTSKNTAYLQMNSLRAEDTAVYYCARNYVYWYGMTVWGQGTLVTVSS
VL: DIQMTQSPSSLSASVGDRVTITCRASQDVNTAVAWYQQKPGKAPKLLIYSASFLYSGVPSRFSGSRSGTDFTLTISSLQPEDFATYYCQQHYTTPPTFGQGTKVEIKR
B21: Trastuzumab HCDR3 variant ARYGRDYYYFDV (Fab, V domains shown)
VH: EVQLVESGGGLVQPGGSLRLSCAASGFNIKDTYIHWVRQAPGKGLEWVARIYPTNGYTRYADSVKGRFTISADTSKNTAYLQMNSLRAEDTAVYYCARYGRDYYYFDVWGQGTLVTVSS
VL: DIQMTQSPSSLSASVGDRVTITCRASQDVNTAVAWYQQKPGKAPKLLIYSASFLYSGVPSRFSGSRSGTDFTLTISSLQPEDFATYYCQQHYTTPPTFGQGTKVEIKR
B22: Trastuzumab HCDR3 variant ARHGSYYYDFDF (Fab, V domains shown)
VH: EVQLVESGGGLVQPGGSLRLSCAASGFNIKDTYIHWVRQAPGKGLEWVARIYPTNGYTRYADSVKGRFTISADTSKNTAYLQMNSLRAEDTAVYYCARHGSYYYDFDFWGQGTLVTVSS
VL: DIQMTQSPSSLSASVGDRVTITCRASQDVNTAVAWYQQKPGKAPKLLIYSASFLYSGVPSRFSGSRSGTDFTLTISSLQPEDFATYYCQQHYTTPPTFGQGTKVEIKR
B23: Trastuzumab HCDR3 variant ARNYYGSYYFDY (Fab, V domains shown)
VH: EVQLVESGGGLVQPGGSLRLSCAASGFNIKDTYIHWVRQAPGKGLEWVARIYPTNGYTRYADSVKGRFTISADTSKNTAYLQMNSLRAEDTAVYYCARNYYGSYYFDYWGQGTLVTVSS
VL: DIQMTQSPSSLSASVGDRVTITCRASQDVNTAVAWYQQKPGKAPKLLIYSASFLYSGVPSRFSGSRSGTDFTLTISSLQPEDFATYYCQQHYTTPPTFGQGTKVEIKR
B24: Trastuzumab HCDR3 variant ARYHYSGYFMDS (Fab, V domains shown)
VH: EVQLVESGGGLVQPGGSLRLSCAASGFNIKDTYIHWVRQAPGKGLEWVARIYPTNGYTRYADSVKGRFTISADTSKNTAYLQMNSLRAEDTAVYYCARYHYSGYFMDSWGQGTLVTVSS
VL: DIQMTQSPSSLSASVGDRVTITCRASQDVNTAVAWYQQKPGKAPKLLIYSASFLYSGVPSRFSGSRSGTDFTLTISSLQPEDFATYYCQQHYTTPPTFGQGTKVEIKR
B25: Trastuzumab HCDR3 variant ARYGTYGYAMDY (Fab, V domains shown)
VH: EVQLVESGGGLVQPGGSLRLSCAASGFNIKDTYIHWVRQAPGKGLEWVARIYPTNGYTRYADSVKGRFTISADTSKNTAYLQMNSLRAEDTAVYYCARYGTYGYAMDYWGQGTLVTVSS
VL: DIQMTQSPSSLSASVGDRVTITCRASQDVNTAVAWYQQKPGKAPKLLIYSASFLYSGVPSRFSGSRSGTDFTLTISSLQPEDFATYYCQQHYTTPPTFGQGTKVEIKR
B26: Trastuzumab HCDR3 variant ARYGYYGYWFDY (Fab, V domains shown)
VH: EVQLVESGGGLVQPGGSLRLSCAASGFNIKDTYIHWVRQAPGKGLEWVARIYPTNGYTRYADSVKGRFTISADTSKNTAYLQMNSLRAEDTAVYYCARYGYYGYWFDYWGQGTLVTVSS
VL: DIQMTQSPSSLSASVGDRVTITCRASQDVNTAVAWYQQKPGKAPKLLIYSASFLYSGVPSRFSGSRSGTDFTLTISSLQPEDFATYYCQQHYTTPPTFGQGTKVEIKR
B27: Trastuzumab HCDR3 variant ARGYYYYFYYNY (Fab, V domains shown)
VH: EVQLVESGGGLVQPGGSLRLSCAASGFNIKDTYIHWVRQAPGKGLEWVARIYPTNGYTRYADSVKGRFTISADTSKNTAYLQMNSLRAEDTAVYYCARGYYYYFYYNYWGQGTLVTVSS
VL: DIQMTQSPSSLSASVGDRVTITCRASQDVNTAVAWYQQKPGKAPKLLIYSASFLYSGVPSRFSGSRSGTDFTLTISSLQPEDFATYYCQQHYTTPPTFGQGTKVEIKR
B28: Trastuzumab HCDR3 variant ARYGVYGYAMDY (Fab, V domains shown)
VH: EVQLVESGGGLVQPGGSLRLSCAASGFNIKDTYIHWVRQAPGKGLEWVARIYPTNGYTRYADSVKGRFTISADTSKNTAYLQMNSLRAEDTAVYYCARYGVYGYAMDYWGQGTLVTVSS
VL: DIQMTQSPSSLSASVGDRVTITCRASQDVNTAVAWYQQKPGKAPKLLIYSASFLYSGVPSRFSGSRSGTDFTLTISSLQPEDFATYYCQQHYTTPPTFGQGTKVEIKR
B29: Trastuzumab HCDR3 variant ARMSYYFYYMDY (Fab, V domains shown)
VH: EVQLVESGGGLVQPGGSLRLSCAASGFNIKDTYIHWVRQAPGKGLEWVARIYPTNGYTRYADSVKGRFTISADTSKNTAYLQMNSLRAEDTAVYYCARMSYYFYYMDYWGQGTLVTVSS
VL: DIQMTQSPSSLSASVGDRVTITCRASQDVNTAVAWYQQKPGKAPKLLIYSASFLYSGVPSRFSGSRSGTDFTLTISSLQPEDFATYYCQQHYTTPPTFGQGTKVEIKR
B30: Trastuzumab HCDR3 variant ARTTISSSSYTG (Fab, V domains shown)
VH: EVQLVESGGGLVQPGGSLRLSCAASGFNIKDTYIHWVRQAPGKGLEWVARIYPTNGYTRYADSVKGRFTISADTSKNTAYLQMNSLRAEDTAVYYCARTTISSSSYTGWGQGTLVTVSS
VL: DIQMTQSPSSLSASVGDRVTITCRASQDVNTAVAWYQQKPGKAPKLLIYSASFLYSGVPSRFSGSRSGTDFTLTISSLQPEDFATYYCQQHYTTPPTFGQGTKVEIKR
B31: Trastuzumab HCDR3 variant ARWRDYYYYFDY (Fab, V domains shown)
VH: EVQLVESGGGLVQPGGSLRLSCAASGFNIKDTYIHWVRQAPGKGLEWVARIYPTNGYTRYADSVKGRFTISADTSKNTAYLQMNSLRAEDTAVYYCARWRDYYYYFDYWGQGTLVTVSS
VL: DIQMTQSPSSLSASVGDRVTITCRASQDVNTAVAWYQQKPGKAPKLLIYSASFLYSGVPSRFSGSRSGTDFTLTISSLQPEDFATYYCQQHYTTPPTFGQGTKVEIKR
B32: Trastuzumab HCDR3 variant ARYGGAGYYLDY (Fab, V domains shown)
VH: EVQLVESGGGLVQPGGSLRLSCAASGFNIKDTYIHWVRQAPGKGLEWVARIYPTNGYTRYADSVKGRFTISADTSKNTAYLQMNSLRAEDTAVYYCARYGGAGYYLDYWGQGTLVTVSS
VL: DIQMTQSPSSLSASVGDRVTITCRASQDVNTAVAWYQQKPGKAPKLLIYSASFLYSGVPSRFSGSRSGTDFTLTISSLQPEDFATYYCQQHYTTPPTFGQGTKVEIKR

The binders below were run against human epidermal growth factor receptor 2 (HER2) extracellular domain (human, UniProt P04626 23-629) (assay: SPR).

Row | Binder | Kd | log(KD (M))
1 | B1 | 95.1 nM | -7.02 log(M)
2 | B2 | 59.9 nM | -7.22 log(M)
3 | B3 | 177 nM | -6.75 log(M)
4 | B4 | 28 nM | -7.55 log(M)
5 | B5 | 103 nM | -6.99 log(M)
6 | B6 | 61 nM | -7.22 log(M)
7 | B7 | 28 nM | -7.55 log(M)
8 | B8 | 210 nM | -6.68 log(M)
9 | B9 | 114 nM | -6.94 log(M)
10 | B10 | 54.8 nM | -7.26 log(M)
11 | B11 | 51.5 nM | -7.29 log(M)
12 | B12 | 179 nM | -6.75 log(M)
13 | B13 | 39.6 nM | -7.4 log(M)
14 | B14 | 33.6 nM | -7.47 log(M)
15 | B15 | 28.9 nM | -7.54 log(M)
16 | B16 | 148 nM | -6.83 log(M)

Row | Binder | Kd | log(KD (M))
17 | B17 | 202 nM | -6.7 log(M)
18 | B18 | 42.6 nM | -7.37 log(M)
19 | B19 | 218 nM | -6.66 log(M)
20 | B20 | 27.5 nM | -7.56 log(M)
21 | B21 | 106 nM | -6.97 log(M)
22 | B22 | 56.6 nM | -7.25 log(M)
23 | B23 | 120 nM | -6.92 log(M)
24 | B24 | 113 nM | -6.95 log(M)
25 | B25 | 65.5 nM | -7.18 log(M)
26 | B26 | 59.4 nM | -7.23 log(M)
27 | B27 | 30.3 nM | -7.52 log(M)
28 | B28 | 53.3 nM | -7.27 log(M)
29 | B29 | 48.9 nM | -7.31 log(M)
30 | B30 | 248 nM | -6.61 log(M)
31 | B31 | 33.8 nM | -7.47 log(M)
32 | B32 | 32.4 nM | -7.49 log(M)
